Consider 24 molecules from patent US20260152527A1 (SIGHTSTREAM BIOTHERAPEUTICS, published 2026).

Starred links: 1 amine or outer side, 2 acyl side, 3 side chain; linkers in the order of their positions; H or OH if unused. Positions of bridges follow the written chain, without caps; N, C: chain ends. Non-standard residues stand in square brackets, D forms with d. *: point of attachment. HyPA = 3,5-dihydroxyphenylacetic acid (N-terminal cap), O=C(Cc1cc(O)cc(O)c1)*; MoPA = (3-methoxyphenyl)acetic acid (N-terminal cap), COc1cccc(CC(=O)*)c1; dTyr(Me) = O-methyl-D-tyrosine, COc1ccc(C[C@@H](N[*:1])C(=O)[*:2])cc1; Phe(OCH3) = O-methyl-tyrosine, COc1ccc(C[C@H](N[*:1])C(=O)[*:2])cc1; Hgln = homoglutamine, NC(=O)CCC[C@H](N[*:1])C(=O)[*:2]; dPhe(4-CF3) = N[C@H](Cc1ccc(C(F)(F)F)cc1)C(=O)O; Trp(1-Me) = Cn1cc(C[C@H](N)C(=O)O)c2ccccc21; Benzoyl(3,5-(OH)2) = O=C(c1cc(O)cc(O)c1)*; NMeW = CN[C@@H](Cc1c[nH]c2ccccc12)C(=O)O; Lys(N3) = [N-]=[N+]=NCCCC[C@H](N)C(=O)O; Phe(4-NH2) = Nc1ccc(C[C@H](N)C(=O)O)cc1; Orn(N3) = [N-]=[N+]=NCCC[C@H](N)C(=O)O; NMeH = CN[C@@H](Cc1c[nH]cn1)C(=O)O; NMeR = CN[C@@H](CCCNC(=N)N)C(=O)O; hArg = N=C(N)NCCCC[C@H](N)C(=O)O; Hpra = C#CCC[C@H](N)C(=O)O; dPra = C#CC[C@@H](N)C(=O)O; Nle = CCCC[C@H](N)C(=O)O; Pra = C#CC[C@H](N)C(=O)O

Sequences and labels used below:
B1: KR-061 (peptide)
peptide: Ac-[Nle][Lys(N3)][Phe(OCH3)][dF]RW[Pra]K-NH2
modifications: triazole 2-7; not fully specified; printed as Ac-Nle-[Lys(N3)-Phe(OCH3)-DPhe-Arg-Trp-Pra]-Lys-NH2
B2: KR-066 (peptide)
peptide: Ac-[Nle][Lys(N3)]H[dF]RW[Hpra]K-NH2
modifications: triazole 2-7; not fully specified; printed as Ac-Nle-[Lys(N3)-His-DPhe-Arg-Trp-HPra]-Lys-NH2
B3: KR-065 (peptide)
peptide: Ac-[Nle][Orn(N3)]H[dF]RW[Pra]K-NH2
modifications: triazole 2-7; not fully specified; printed as Ac-Nle-[Orn(N3)-His-DPhe-Arg-Trp-Pra]-Lys-NH2
B4: KR-005 (peptide)
peptide: Ac-SYSMEHFRWGKP-NH2
B5: KR-062 (peptide)
peptide: HyPA-[Nle][Lys(N3)]H[dF]RW[Pra]K-NH2
modifications: triazole 2-7; not fully specified; printed as HyPA-Nle-[Lys(N3)-His-DPhe-Arg-Trp-Pra]-Lys-NH2
B6: KR-048 (peptide)
peptide: Ac-[Nle][Lys(N3)]H[dPhe(4-CF3)]RW[Pra]-NH2
modifications: triazole 2-7
B7: KR-057 (peptide)
peptide: Ac-[Nle][Lys(N3)]H[dF]RW[Pra][Hgln]-NH2
modifications: triazole 2-7; not fully specified; printed as Ac-Nle-[Lys(N3)-His-DPhe-Arg-Trp-Pra]-Hgln-NH2
B8: KR-007 (peptide)
peptide: Ac-EHFRWGKP-NH2
B9: KR-058 (peptide)
peptide: Ac-[Nle][Lys(N3)]H[dTyr(Me)]RW[Pra]K-NH2
modifications: triazole 2-7; not fully specified; printed as Ac-Nle-[Lys(N3)-His-DTyr(Me)-Arg-Trp-Pra]-Lys-NH2
B10: KR-056 (peptide)
peptide: Ac-[Nle][Lys(N3)]H[dF]RW[Pra]N-NH2
modifications: triazole 2-7; not fully specified; printed as Ac-Nle-[Lys(N3)-His-DPhe-Arg-Trp-Pra]-Asn-NH2
B11: KR-054 (peptide)
peptide: Ac-[Nle][Lys(N3)]H[dF][hArg]W[Pra]K-NH2
modifications: triazole 2-7; not fully specified; printed as Ac-Nle-[Lys(N3)-His-DPhe-HArg-Trp-Pra]-Lys-NH2
B12: KR-067 (peptide)
peptide: Ac-[Nle][Pra]H[dF]RW[Lys(N3)]K-NH2
modifications: triazole 2-7; not fully specified; printed as Ac-Nle-[Pra-His-DPhe-Arg-Trp-Lys(N3)]-Lys-NH2
B13: KR-053 (peptide)
peptide: {Benzoyl(3,5-(OH)2)}-[Nle][Lys(N3)]H[dF]RW[Pra]K-NH2
modifications: triazole 2-7; not fully specified; printed as HyBA-Nle-[Lys(N3)-His-DPhe-Arg-Trp-Pra]-Lys-NH2
B14: KR-068 (peptide)
peptide: Ac-[Nle][Orn(N3)]H[dF]RW[Hpra]K-NH2
modifications: triazole 2-7; not fully specified; printed as Ac-Nle-[Orn(N3)-His-DPhe-Arg-Trp-Hpra]-Lys-NH2
B15: KR-052 (peptide)
peptide: Ac-[Nle][Lys(N3)][NMeH][dF][NMeR]W[Pra]-NH2
modifications: triazole 2-7; not fully specified
B16: KR-046 (peptide)
peptide: Ac-[Nle][Lys(N3)]H[dF]R[NMeW][Pra]-NH2
modifications: triazole 2-7
B17: KR-063 (peptide)
peptide: {MoPA-MoPA}-[Nle][Lys(N3)]H[dF]RW[Pra]K-NH2
modifications: triazole 2-7; not fully specified; printed as MoPA-MoPA-Nle-[Lys(N3)-His-DPhe-Arg-Trp-Pra]-Lys-NH2
B18: KR-006 (peptide)
peptide: Ac-SYSMEHFRWGK-NH2
B19: KR-047 (peptide)
peptide: Ac-[Nle][Lys(N3)][Phe(4-NH2)][dF]RW[Pra]-NH2
modifications: triazole 2-7
B20: KR-050 (peptide)
peptide: Ac-[Nle][Lys(N3)]H[dF][NMeR][NMeW][Pra]-NH2
modifications: triazole 2-7
B21: KR-051 (peptide)
peptide: Ac-[Nle][Lys(N3)][NMeH][dF]R[NMeW][Pra]-NH2
modifications: triazole 2-7
B22: KR-070 (peptide)
peptide: Ac-[Nle][Lys(N3)]H[dF]RW[dPra]K-NH2
modifications: triazole 2-7; not fully specified; printed as Ac-Nle-[Lys(N3)-His-DPhe-Arg-Trp-DPra]-Lys-NH2
B23: KR-045 (peptide)
peptide: Ac-[Nle][Lys(N3)]H[dF][NMeR]W[Pra]-NH2
modifications: triazole 2-7
B24: KR-060 (peptide)
peptide: Ac-[Nle][Lys(N3)]H[dF]R[Trp(1-Me)][Pra]K-NH2
modifications: triazole 2-7; not fully specified; printed as Ac-Nle-[Lys(N3)-His-DPhe-Arg-Trp(Me)-Pra]-Lys-NH2

Chain of human recombinant MC1R (CHO-K1 stable cell line, GenScript) (Q01726 whole entry): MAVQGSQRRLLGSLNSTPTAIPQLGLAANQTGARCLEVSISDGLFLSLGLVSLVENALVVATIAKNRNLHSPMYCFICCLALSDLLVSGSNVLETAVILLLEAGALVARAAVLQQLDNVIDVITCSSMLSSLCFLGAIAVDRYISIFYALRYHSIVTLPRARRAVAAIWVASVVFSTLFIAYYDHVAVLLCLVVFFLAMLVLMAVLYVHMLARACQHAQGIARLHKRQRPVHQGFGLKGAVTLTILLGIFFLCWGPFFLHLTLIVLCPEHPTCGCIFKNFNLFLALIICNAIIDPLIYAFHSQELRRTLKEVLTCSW

The first assay has as its target human recombinant MC1R (CHO-K1 stable cell line, GenScript) (human, UniProt Q01726 1-317). As to the kind of experiment: cell-based or functional assay.
For B1, the “MC1R IC50” value was 28 nM.
The same measure, in the same setting: the same measure for B2: 0.0047 nM.
Same read-out and setting: the same measure for B3: 0.027 nM; for B4: 0.093 nM.
On to B5, for which the “MC1R IC50” value stood at 0.03 nM.
The same measure, in the same setting: as for B6, the figure is 0.18 nM; as for B7, 0.024 nM.
Same read-out and setting: as for B8, the figure is 1.99 nM.
The same measure, in the same setting: the same measure for B9: 2.68 nM; for B10: 0.052 nM.
In the case of B11, the “MC1R IC50” value amounted to 0.093 nM.
On to B12, for which the “MC1R IC50” value is 0.11 nM.
Take B13: the “MC1R IC50” value was determined as 0.0089 nM.
The same measure, in the same setting: the same measure for B14: 0.04 nM.
As for B15, the “MC1R IC50” value came to 2.68 nM.
For B16, the “MC1R IC50” value was determined as 0.28 nM.
Same read-out and setting: as for B17, the figure is 0.05 nM.
Same read-out and setting: as for B18, the figure is 0.11 nM.
On the same count and under the same terms, the same measure for B19: greater than 50 nM; for B20: 0.081 nM.
B21: the “MC1R IC50” value was determined as 0.043 nM.
The same measure, in the same setting: the same measure for B22: 11.8 nM; for B23: 0.48 nM; for B24: 0.79 nM.

The target in another assay is human recombinant MC3R (CHO-K1/Gα15 stable cell line, GenScript) (human, UniProt P41968 1-323). As to the kind of experiment: cell-based or functional assay.
Chain of human recombinant MC3R (CHO-K1/Gα15 stable cell line, GenScript) (P41968 whole entry): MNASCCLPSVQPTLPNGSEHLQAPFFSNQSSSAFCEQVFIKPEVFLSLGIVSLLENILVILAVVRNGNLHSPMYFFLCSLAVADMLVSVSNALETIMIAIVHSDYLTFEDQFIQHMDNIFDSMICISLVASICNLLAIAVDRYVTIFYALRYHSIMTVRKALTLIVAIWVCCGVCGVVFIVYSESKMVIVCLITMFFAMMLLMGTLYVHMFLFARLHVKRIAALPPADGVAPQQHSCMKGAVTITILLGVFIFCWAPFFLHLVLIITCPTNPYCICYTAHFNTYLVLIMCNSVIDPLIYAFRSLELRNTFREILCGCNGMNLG
Take B1: the “MC3R IC50” value came out at 51.1 nM.
Still for that read-out and setting: the same measure for B2: 39.9 nM.
On the same count and under the same terms, as for B3, the figure is 91.6 nM.
The same measure, in the same setting: as for B4, the figure is 149 nM; as for B5, 13 nM.
Turning to B6, the “MC3R IC50” value was greater than 50000 nM.
The same measure, in the same setting: the same measure for B7: 73.3 nM; for B8: 1400 nM.
The same measure, in the same setting: the same measure for B9: greater than 50000 nM; for B10: 66.5 nM; for B11: 67.8 nM.
Same read-out and setting: as for B12, the figure is 66.2 nM; as for B13, 78.1 nM.
For B14, the “MC3R IC50” value was found to be 27.6 nM.
The same measure, in the same setting: as for B15, the figure is greater than 50000 nM; as for B16, 98.8 nM.
On the same count and under the same terms, as for B17, the figure is 62.8 nM; as for B18, 224 nM; as for B19, 80.9 nM.
The same measure, in the same setting: as for B20, the figure is 4480 nM; as for B21, 77.5 nM.
In the case of B22, the “MC3R IC50” value was 1630 nM.
With B23, the “MC3R IC50” value is greater than 50000 nM.
Same read-out and setting: the same measure for B24: 260 nM.

A further assay deals with human recombinant MC4R (CHO-K1/Gα15 stable cell line, GenScript) (human, UniProt P32245 1-332). As to the kind of experiment: cell-based or functional assay.
Chain of human recombinant MC4R (CHO-K1/Gα15 stable cell line, GenScript) (P32245 whole entry): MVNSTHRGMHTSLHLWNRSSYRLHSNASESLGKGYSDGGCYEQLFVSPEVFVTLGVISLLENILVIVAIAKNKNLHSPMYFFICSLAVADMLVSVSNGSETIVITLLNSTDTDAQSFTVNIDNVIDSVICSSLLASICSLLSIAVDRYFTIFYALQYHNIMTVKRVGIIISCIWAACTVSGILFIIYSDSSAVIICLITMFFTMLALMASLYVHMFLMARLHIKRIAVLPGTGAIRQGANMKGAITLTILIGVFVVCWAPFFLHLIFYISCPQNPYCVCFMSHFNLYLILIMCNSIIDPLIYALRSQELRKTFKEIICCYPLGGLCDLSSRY
For the molecule B1, the “MC4R IC50” value was 101 nM.
Still for that read-out and setting: the same measure for B2: 75.1 nM; for B3: 36 nM.
On the same count and under the same terms, the same measure for B4: 67 nM; for B5: 44.4 nM; for B6: 183 nM.
Take B7: the “MC4R IC50” value came out at 33.5 nM.
The same measure, in the same setting: the same measure for B8: 16.4 nM.
Same read-out and setting: as for B9, the figure is 122 nM.
The same measure, in the same setting: as for B10, the figure is 23.1 nM.
Take B11: the “MC4R IC50” value turned out to be 31.9 nM.
Still for that read-out and setting: as for B12, the figure is 28.7 nM; as for B13, 39.8 nM.
Same read-out and setting: as for B14, the figure is 21.8 nM.
On the same count and under the same terms, as for B15, the figure is 122 nM.
Regarding B16, the “MC4R IC50” value came to 39.3 nM.
Still for that read-out and setting: as for B17, the figure is 67.1 nM.
Same read-out and setting: the same measure for B18: 80.9 nM; for B19: 17.9 nM.
As to B20, the “MC4R IC50” value is 242 nM.
Same read-out and setting: the same measure for B21: 96.2 nM; for B22: 84.1 nM.
The same measure, in the same setting: as for B23, the figure is 40.3 nM.
As for B24, the “MC4R IC50” value was determined as 67.6 nM.

The target of the next assay is human recombinant MC5R (CHO-K1/Ga15 stable cell line, GenScript) (human, UniProt P33032 1-325). As to the kind of experiment: cell-based or functional assay.
Chain of human recombinant MC5R (CHO-K1/Ga15 stable cell line, GenScript) (P33032 whole entry): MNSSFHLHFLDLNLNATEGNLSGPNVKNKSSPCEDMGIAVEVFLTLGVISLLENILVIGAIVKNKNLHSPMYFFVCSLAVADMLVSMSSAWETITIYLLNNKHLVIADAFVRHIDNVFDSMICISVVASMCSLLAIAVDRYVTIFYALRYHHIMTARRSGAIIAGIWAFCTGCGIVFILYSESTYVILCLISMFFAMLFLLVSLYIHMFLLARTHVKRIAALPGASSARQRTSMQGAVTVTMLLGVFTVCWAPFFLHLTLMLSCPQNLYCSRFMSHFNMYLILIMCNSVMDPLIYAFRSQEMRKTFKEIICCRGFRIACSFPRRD
For the molecule B1, the “MC5R IC50” value was determined as 150 nM.
On the same count and under the same terms, as for B2, the figure is 64 nM.
The same measure, in the same setting: the same measure for B3: 70.2 nM; for B4: 79.8 nM; for B5: 167 nM.
With B6, the “MC5R IC50” value was determined as 48.8 nM.
Same read-out and setting: as for B7, the figure is 107 nM; as for B8, greater than 10000 nM; as for B9, 195 nM.
The same measure, in the same setting: the same measure for B10: 69.6 nM; for B11: 82.3 nM.
On the same count and under the same terms, as for B12, the figure is 79.7 nM; as for B13, 120 nM; as for B14, 40.4 nM.
As for B15, the “MC5R IC50” value came to 195 nM.
On the same count and under the same terms, the same measure for B16: 94.8 nM; for B17: 99.6 nM; for B18: 122 nM.
On the same count and under the same terms, the same measure for B19: 41.9 nM.
The same measure, in the same setting: the same measure for B20: 234 nM; for B21: 98.9 nM.
For B22, the “MC5R IC50” value stood at 376 nM.
Same read-out and setting: as for B23, the figure is 191 nM; as for B24, 319 nM.
